Measurements published in paper PMC3148490 (Cell metabolism, 2011).

B1: MBP-DAMH (MBP fusion protein of the CAPS DAMH domain) (domain or fragment, UniProt Q62717 859-1073, looked up)
chain: ENVGRLITPAKKLEDTIRLAELVIEVLQQNEEHHAEAFAWWSDLMVEHAETFLSLFAVDMDAALEVQPPDTWDSFPLFQLLNDFLRTDYNLCNGKFHKHLQDLFAPLVVRYVDLMESSIAQSIHRGFERESWEPVNNGSGTSEDLFWKLDALQTFIRDLHWPEEEFGKHLEQRLKLMASDMIESCVKRTRIAFEVKLQKTSRSTDFRVPQSICTM
B2: GST-DAMH (GST fusion protein of CAPS(859-1073), the DAMH domain) (domain or fragment, UniProt Q62717 859-1073, looked up)
chain: B1 chain

Assays:
[1] = biological target: T1, t-SNAREs: heterodimeric complex of syntaxin-1 and SNAP-25, membrane-integrated in liposomes (UniProt P32851 1-288; P60881 1-206); experiment: co-sedimentation
T1 sequence (P32851 whole entry, chain 1 of 2): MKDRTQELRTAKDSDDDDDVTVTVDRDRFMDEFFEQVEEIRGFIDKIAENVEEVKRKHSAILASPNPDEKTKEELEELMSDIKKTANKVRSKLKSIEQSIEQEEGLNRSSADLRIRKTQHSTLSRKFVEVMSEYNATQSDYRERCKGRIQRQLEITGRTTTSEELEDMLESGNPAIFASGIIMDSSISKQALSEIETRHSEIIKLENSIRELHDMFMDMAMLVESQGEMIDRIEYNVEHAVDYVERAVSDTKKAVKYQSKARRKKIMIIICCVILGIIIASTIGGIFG
T1 sequence (P60881 whole entry, chain 2 of 2): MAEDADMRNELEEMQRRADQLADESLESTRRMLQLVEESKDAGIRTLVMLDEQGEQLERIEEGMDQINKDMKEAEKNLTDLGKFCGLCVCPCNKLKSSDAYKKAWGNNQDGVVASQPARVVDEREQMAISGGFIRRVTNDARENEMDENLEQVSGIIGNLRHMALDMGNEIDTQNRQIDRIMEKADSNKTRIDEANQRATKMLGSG

[2] = biological target: T1, t-SNAREs: heterodimeric complex of …; experiment: co-sedimentation; remark: listed apart in the source

| Binder | Kd [1] [µM] | fold binding against syntaxin-1 or SNAP-25 alone [2] [fold] |
| --- | --- | --- |
| B1 | 0.177 | – |
| B2 | – | 2 |
